T1: hPD-L2 (human, UniProt Q9BQ51 20-219, limits assumed)
T1 construct: Bought protein
T1 sequence (looked up): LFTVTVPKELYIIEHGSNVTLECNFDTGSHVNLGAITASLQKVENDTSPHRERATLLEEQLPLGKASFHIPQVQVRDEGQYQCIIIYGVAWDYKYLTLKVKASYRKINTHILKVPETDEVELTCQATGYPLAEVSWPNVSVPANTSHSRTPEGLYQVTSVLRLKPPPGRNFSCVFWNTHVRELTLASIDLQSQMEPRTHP


What was measured:
[1] = target: T2, full length cyno PD-L1 on cells (cyno, UniProt G7PSE7 19-290); test: FACS CHO-K1-cPD-L1, 33.33 nM mAb
T2 construct: also called CHO-K1-cPD-L1
Method: (§1) Other CHO-K1 were stably transfected with a pIRES plasmid containing the nucleic acid sequence encoding full length cyno PD-L1 to generate CHO-K1 cells stably expressing cyno PD-L1 (herein referred to as CHO-K1-cPD-L1 cells). […] The culture media was aspirated, and the cells were washed twice with HBSS (Hanks Balanced Salt Solution, Invitrogen). The cells were treated with enzyme-free cell dissociation solution (Versene solution, Invitrogen) and collected. The cells were then washed twice with HBSS, cell counts were determined, and cells were resuspended with HBSS at 2×10⁶ cells/mL. Goat serum was added to the cell suspension to a final concentration of 1%, and the cells were blocked for 30 minutes on ice and then washed twice with HBSS. The cells were collected after centrifugation and resuspended in FACS buffer (HBSS+1% BSA, v/v) at 2×10⁶ cells/mL. 100 μL of the cell suspension were then added to each well of 96-well plate. 100 μL of purified anti-PD-L1 antibodies from Example 2 were added to each well of the 96-well plate and incubated for 2 hours on ice. […] The samples were washed three times with FACS buffer, and 100 μL fixation buffer (4% paraformaldehyde v/v) were added to each well and incubated for 10 minutes. The cells were then washed twice with FACS buffer and resuspended in 100 μL FACS buffer. The mean fluorescence intensity (MFI) was determined using FACS Calibur (BD), and the results are shown in FIGS. 7-8 and in Tables 10-11.

[2] = target: T3, human PD-L1^ECD-hFc protein (human, UniProt Q9NZQ7 19-239, biotinylated in the PD-1 binding ELISA (Table 3) and in the Octet assay (Table 12)); test: ELISA, 1.111 nM mAb
T3 construct: The plain and the biotinylated protein are kept as one molecule; also called PD-L1-hFc; Immunogen A; not shown: human IgG Fc fragment (hFc)
Method: (§2) 100 μL of the diluted recombinant proteins were added to each well of 96-well plate. The plates were sealed with plastic film and incubated at 4° C. overnight. The plates were washed twice with wash buffer (PBS+0.01% (v/v) Tween20), and incubated with blocking buffer (PBS+0.01% (v/v) Tween20+1% (w/w) BSA) at room temperature for 2 hours. The blocking buffer was aspirated away, and 100 μL of purified anti-PD-L1 antibodies were added to each well and incubated for 2 hours at 37° C. The plates were washed three times with wash buffer (PBS+0.01% (v/v) Tween20). HRP-conjugated secondary antibody (Sigma) was added to each well and incubated for 2 hours at 37° C. After the plates were washed three times with wash buffer, 100 μL TMB substrate were added to each well, and the plates were incubated for 30 minutes at room temperature. 100 μL stop solution (0.1N HCl) was added to each well to stop the reaction.

[3] = target: T2, full length cyno PD-L1 on cells; test: FACS CHO-K1-cPD-L1, 1.23 nM mAb
Method: as §1

[4] = target: T4, cyno PD-L1^ECD-hFc protein (cyno, UniProt G7PSE7 19-239); test: ELISA, 0.123 nM mAb
T4 construct: also called Cyno Monkey PD-L1^ECD-hFc
Method: as §2

[5] = target: T3, human PD-L1^ECD-hFc protein; test: ELISA, 0.123 nM mAb
Method: as §2

hPD-L2 [6] = target: T1, hPD-L2; test: ELISA (numbers in Table 9)
Method: as §2

hPD-L2 [7] = target: T1, hPD-L2; test: ELISA, mAb concentration not given
Method: as §2

[8] = target: T3, human PD-L1^ECD-hFc protein; test: ELISA, mAb concentration not given
Method: as §2

[9] = target: T5, full length human PD-L1 on cells (human, UniProt Q9NZQ7 19-290); test: FACS CHO-K1-hPD-L1, 1.23 nM mAb
T5 construct: Also used as the target of the cell-based functional assays (transfected stimulator cells; PD-L1 of the cells in the mixed lymphocyte reaction); also called CHO-K1-hPD-L1; CHOK1-hPD-L1

[10] = target: T5, full length human PD-L1 on cells; test: FACS CHO-K1-hPD-L1, 0.14 nM mAb
Method: as §1

[11] = target: T5, full length human PD-L1 on cells; test: FACS CHO-K1-hPD-L1, 1 nM mAb
[12] = target: T2, full length cyno PD-L1 on cells; test: FACS CHO-K1-cPD-L1, 1 nM mAb
Method: as §1

[13] = target: T5, full length human PD-L1 on cells; test: cell-based or functional assay
[14] = target: T3, human PD-L1^ECD-hFc protein; test: ELISA, 0.1 nM mAb
Method: as §2

[15] = target: T3, human PD-L1^ECD-hFc protein; test: ELISA, 1 nM mAb
Method: as §2

[16] = target: T2, full length cyno PD-L1 on cells; test: FACS CHO-K1-cPD-L1, 0.001 nM mAb as printed (second such column)
Method: as §1

T5 sequence (Q9NZQ7 19-290 limits assumed): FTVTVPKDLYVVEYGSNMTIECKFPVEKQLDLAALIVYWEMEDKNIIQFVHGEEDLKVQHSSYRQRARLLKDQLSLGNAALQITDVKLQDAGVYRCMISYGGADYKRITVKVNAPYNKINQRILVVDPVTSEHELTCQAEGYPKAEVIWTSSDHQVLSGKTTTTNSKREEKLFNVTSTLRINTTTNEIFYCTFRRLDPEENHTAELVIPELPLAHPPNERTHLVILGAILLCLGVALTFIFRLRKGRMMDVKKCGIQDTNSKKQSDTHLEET
T4 sequence (G7PSE7 entry or part of it limits assumed): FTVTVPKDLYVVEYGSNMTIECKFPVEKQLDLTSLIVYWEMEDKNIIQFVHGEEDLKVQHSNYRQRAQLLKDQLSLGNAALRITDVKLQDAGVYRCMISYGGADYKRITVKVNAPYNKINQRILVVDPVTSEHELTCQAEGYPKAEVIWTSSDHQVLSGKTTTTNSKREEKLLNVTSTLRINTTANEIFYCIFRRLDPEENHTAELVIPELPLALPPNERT
T3 sequence (Q9NZQ7 19-239): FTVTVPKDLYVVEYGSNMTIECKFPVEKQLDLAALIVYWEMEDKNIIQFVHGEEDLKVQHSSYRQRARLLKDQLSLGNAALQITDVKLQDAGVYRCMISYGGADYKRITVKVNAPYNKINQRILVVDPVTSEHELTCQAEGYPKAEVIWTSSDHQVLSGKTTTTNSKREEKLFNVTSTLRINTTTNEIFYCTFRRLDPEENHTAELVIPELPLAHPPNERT
T2 sequence (G7PSE7 entry or part of it limits assumed): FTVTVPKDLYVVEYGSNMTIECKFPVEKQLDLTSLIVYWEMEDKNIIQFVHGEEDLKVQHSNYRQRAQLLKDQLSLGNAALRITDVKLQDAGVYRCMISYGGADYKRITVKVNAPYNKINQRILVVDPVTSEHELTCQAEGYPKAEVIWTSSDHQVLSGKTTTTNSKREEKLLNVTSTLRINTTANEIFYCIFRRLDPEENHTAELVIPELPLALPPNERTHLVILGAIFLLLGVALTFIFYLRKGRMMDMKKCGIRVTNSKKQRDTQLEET

Mean fluorescence intensity [1] | OD450 nm [2] | Mean fluorescence intensity [3] | OD450 nm [4] | OD450 nm [5] | binding result (hPD-L2 [6]) | OD450 nm (hPD-L2 [7]) | OD450 nm [8] | Mean fluorescence intensity [9] | Mean fluorescence intensity [10] | Mean fluorescence intensity [11] | Mean fluorescence intensity [12] | IFN-γ (pg/mL), MLR, 0.001 µg/mL mAb [13] [pg/mL] | IFN-γ (pg/mL), MLR, 0.01 µg/mL mAb [13] [pg/mL] | IFN-γ (pg/mL), MLR, 0.1 µg/mL mAb [13] [pg/mL] | IFN-γ (pg/mL), MLR, 1 µg/mL mAb [13] [pg/mL] | IFN-γ (pg/mL), MLR, 10 µg/mL mAb [13] [pg/mL] | OD450 nm [14] | OD450 nm [15] | Mean fluorescence intensity [16] | Binder
137 | 1.81 | 116 | 0.72 | 0.72 | no binding | 0.156 | 2.75 | 106 | 44.3 |  |  |  |  |  |  |  |  |  |  | chimeric anti-PD-L1 antibody 73D3G2 (antibody, V domains shown, Purified from hybridoma of Harbour H2L2 mice: human variable regions, rat constant regions) VH: EVQLVESGGGLVQPGGSLRLSCAASGFTFNTYWMNWVRQAPGRGLEWVANIKQDGGEKYYVDSVKGRFTISRDNAKNSLYLQMNSLRAEDTAMYYCARDGRSWYPDAFDIWGQGTVVTVSS VL: DIQMTQSPSTLSASVGDRVTITCRASQSISTWLAWYQQKLGKAPKLLIYEVSILESGVPSRFSGSGSGTEFTLTISSLQPDDFATYYCQQYHSFSSFGGGTRVEIK
143 | 1.86 | 124 | 0.91 | 0.84 | no binding | 0.205 | 2.71 | 174 | 51.5 |  |  |  |  |  |  |  |  |  |  | chimeric anti-PD-L1 antibody 78A11F6 (antibody, V domains shown, Purified from hybridoma of Harbour H2L2 mice: human variable regions, rat constant regions) VH: EVQLVESGGGLVQPGGSLRLSCAASGITFSSYWMSWVRQTPGKGLEWVANIKQDGSEKYYVKSVKGRFTISRDNAKNSLYLQMNSLRAEDTAVYYCVRDRAVPGTGAFDIWGQGTMVIVSS VL: DIQMTQSPSTLSASVGDRVTITCRASQSISNWLAWYQQKPGKAPKLLIYKASSLESGVPSRFSGSGSGTEFTLTISSLQPDDFATYYCQQYDSSLFTFGQGTKLEIK
 |  |  |  |  |  |  |  |  |  | 107 | 94.9 | 1520 | 3750 | 5740 | 6480 | 6950 | 0.88 | 2.7 | 1.78 | chimeric anti-PD-L1 antibody 73G11B3 (antibody, V domains shown, Purified from hybridoma of Harbour H2L2 mice: human variable regions, rat constant regions) VH: EVQLVESGGGLVQPGGSLRLSCVVSGFTFSSYWMSWVRQTPGKGLEWVANIKQDGSEKYYVDSVKGRLTISRDNAKNSLYLQMNSLRAEDTAVYYCVRDRAVPGTGALDIWGQGTMVTVSS VL: not shown
 |  |  |  |  |  |  |  |  |  | 97.6 | 77.2 | 221 | 2000 | 3120 | 3300 | 4080 | 1.55 | 2.77 | 1.75 | chimeric anti-PD-L1 antibody 192D9E7 (antibody, V domains shown, Purified from hybridoma of Harbour H2L2 mice: human variable regions, rat constant regions) VH: EVQLVESGGGLVQPGGSLRLSCAASGFTFSSYWMSWVRQAPGKGLEWVADIKQDGSEKYYVDSVKGRFTISRDNAKNSLYLQMNSLRAEDTAVYYCTRDKPHWGGVMDAWGQGTSVTVSS VL: not shown
133 | 1.32 | 137 | 0.67 | 0.67 | no binding | 0.214 | 2.64 | 206 | 73.2 |  |  |  |  |  |  |  |  |  |  | chimeric anti-PD-L1 antibody 105C5D7 (antibody, V domains shown, Purified from hybridoma of Harbour H2L2 mice: human variable regions, rat constant regions) VH: EVQLVESGGGLVQPGGSLRLSCAASGFTFSSYWMSWVRQAPGKGLEWVANIKQDGNEKYYVDSVKGRFTISRDNAKNSLYLQMNSLRAEDTAVYYCARNIKWGDAFDIWGQGTMVTVSS VL: DIQMTQSPSSLSASVGDRVTITCRASQSISSYLNWYQQKPGKAPKLLIYAASSLQSGVPSRFSGSGSGTDFTLTISSLQPEDFAIYSCQQSYSIPLTFGGGTKVEIK
 |  |  |  |  |  |  |  |  |  | 88.5 | 80.5 | 599 | 1560 | 3010 | 2840 | 4840 | 1.65 | 2.8 | 1.78 | chimeric anti-PD-L1 antibody 127D2F3 (antibody, V domains shown, Purified from hybridoma of Harbour H2L2 mice: human variable regions, rat constant regions) VH: EVQLVESGGGLVQPGGSLRLSCVASGFTFSSYWMSWVRQAPGKGLEWVANIKQDGSEKYYVDSVKGRLTISRDNAKNSLYLQMKSLRAEDTAVYYCARDPIYSSYFDYWGQGILVTVSS VL: DIQMTQSPSSLSASVGDRVTITCRASQSISNYLNWYQQKPGKAPKLLIYAASSLQSGVPSRFSGSGSGTDFTLTISSLQPEDFAAYYCQQSYGIPFTFGPGTKVDIK
